Consider 6 molecules from patent US20160272683A1 (Novo Nordisk, published 2016).

Usually IC50 stands for the midpoint of a concentration-inhibition curve.

Numbered stars: 1 amine (or outer) side, 2 acyl side, 3 side chain; on linkers, the order of the positions; unused ones are H or OH. Side chains are listed from the residue outwards. Ends that are not written are not given here. * marks the point of attachment. C20 diacid = O=C(O)CCCCCCCCCCCCCCCCCCC(=O)*; γGlu = O=C(O)[C@H](CCC(=O)[*:2])N[*:1]

The assay concerns the target T1, human calcitonin receptor (human, UniProt P30988 25-474).
T1 construct: whole, on cells; also called hCT-R; hCTR
T1 sequence (looked up): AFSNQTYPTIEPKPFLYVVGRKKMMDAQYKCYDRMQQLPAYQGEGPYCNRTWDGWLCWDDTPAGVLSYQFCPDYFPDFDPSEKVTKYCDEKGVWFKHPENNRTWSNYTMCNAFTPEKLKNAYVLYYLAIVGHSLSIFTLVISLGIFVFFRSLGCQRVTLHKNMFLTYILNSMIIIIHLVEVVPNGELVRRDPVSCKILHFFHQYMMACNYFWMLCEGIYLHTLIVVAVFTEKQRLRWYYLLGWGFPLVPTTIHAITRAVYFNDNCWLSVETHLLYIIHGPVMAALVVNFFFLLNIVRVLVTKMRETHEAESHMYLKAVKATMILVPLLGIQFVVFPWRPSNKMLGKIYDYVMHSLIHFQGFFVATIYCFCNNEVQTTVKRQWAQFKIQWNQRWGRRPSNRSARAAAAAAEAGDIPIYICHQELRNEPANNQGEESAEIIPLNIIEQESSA
Description: whole-cell competition vs 125I-human calcitonin (Assay VIIa). Put shortly:
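BHK tk'ts 13 cells stably co-expressing human calcitonin receptor and a CRE-luciferase reporter, seeded overnight at 37 °C. Bound tracer counted by scintillation after cold HBSS washes and NaOH/SDS lysis; IC₅₀ from one-site competition fit taken as receptor affinity.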

B1: [N-terminal(C20 diacid-gGlu), des1, 4G, 9V, 15Q, 21Q, 23Y, 30S, 31A, 32T, 33Y]mimylin (peptide)
peptide: {C20 diacid-γGlu}-ASGLSTAVLGRLSQELHELQTYPRTETGSATY-NH2
SMILES: CC(C)C[C@H](NC(=O)CNC(=O)[C@H](CO)NC(=O)[C@H](C)NC(=O)CC[C@H](NC(=O)CCCCCCCCCCCCCCCCCCC(=O)O)C(=O)O)C(=O)N[C@@H](CO)C(=O)N[C@H](C(=O)N[C@@H](C)C(=O)N[C@H](C(=O)N[C@@H](CC(C)C)C(=O)NCC(=O)N[C@@H](CCCNC(=N)N)C(=O)N[C@@H](CC(C)C)C(=O)N[C@@H](CO)C(=O)N[C@@H](CCC(N)=O)C(=O)N[C@@H](CCC(=O)O)C(=O)N[C@@H](CC(C)C)C(=O)N[C@@H](Cc1c[nH]cn1)C(=O)N[C@@H](CCC(=O)O)C(=O)N[C@@H](CC(C)C)C(=O)N[C@@H](CCC(N)=O)C(=O)N[C@H](C(=O)N[C@@H](Cc1ccc(O)cc1)C(=O)N1CCC[C@H]1C(=O)N[C@@H](CCCNC(=N)N)C(=O)N[C@H](C(=O)N[C@@H](CCC(=O)O)C(=O)N[C@H](C(=O)NCC(=O)N[C@@H](CO)C(=O)N[C@@H](C)C(=O)N[C@H](C(=O)N[C@@H](Cc1ccc(O)cc1)C(N)=O)[C@@H](C)O)[C@@H](C)O)[C@@H](C)O)[C@@H](C)O)C(C)C)[C@@H](C)O
In the case of B1, the IC50 stood at 0.318 nM.

B2: [N-terminal(C20 diacid-gGlu), des1, 4G, 15Q, 21Q, 23Y, 25H, 30S, 31G, 32T, 33Y]mimylin (peptide)
peptide: {C20 diacid-γGlu}-ASGLSTAALGRLSQELHELQTYPHTETGSGTY-NH2
SMILES: CC(C)C[C@H](NC(=O)CNC(=O)[C@H](CO)NC(=O)[C@H](C)NC(=O)CC[C@H](NC(=O)CCCCCCCCCCCCCCCCCCC(=O)O)C(=O)O)C(=O)N[C@@H](CO)C(=O)N[C@H](C(=O)N[C@@H](C)C(=O)N[C@@H](C)C(=O)N[C@@H](CC(C)C)C(=O)NCC(=O)N[C@@H](CCCNC(=N)N)C(=O)N[C@@H](CC(C)C)C(=O)N[C@@H](CO)C(=O)N[C@@H](CCC(N)=O)C(=O)N[C@@H](CCC(=O)O)C(=O)N[C@@H](CC(C)C)C(=O)N[C@@H](Cc1c[nH]cn1)C(=O)N[C@@H](CCC(=O)O)C(=O)N[C@@H](CC(C)C)C(=O)N[C@@H](CCC(N)=O)C(=O)N[C@H](C(=O)N[C@@H](Cc1ccc(O)cc1)C(=O)N1CCC[C@H]1C(=O)N[C@@H](Cc1c[nH]cn1)C(=O)N[C@H](C(=O)N[C@@H](CCC(=O)O)C(=O)N[C@H](C(=O)NCC(=O)N[C@@H](CO)C(=O)NCC(=O)N[C@H](C(=O)N[C@@H](Cc1ccc(O)cc1)C(N)=O)[C@@H](C)O)[C@@H](C)O)[C@@H](C)O)[C@@H](C)O)[C@@H](C)O
For the molecule B2, the IC50 amounted to 0.45 nM.

B3: [N-terminal(C20 diacid-gGlu), des1, 4G, 15T, 21E, 23Y, 30S, 31G, 32T, 33Y]mimylin (peptide)
peptide: {C20 diacid-γGlu}-ASGLSTAALGRLSTELHELETYPRTETGSGTY-NH2
SMILES: CC(C)C[C@H](NC(=O)CNC(=O)[C@H](CO)NC(=O)[C@H](C)NC(=O)CC[C@H](NC(=O)CCCCCCCCCCCCCCCCCCC(=O)O)C(=O)O)C(=O)N[C@@H](CO)C(=O)N[C@H](C(=O)N[C@@H](C)C(=O)N[C@@H](C)C(=O)N[C@@H](CC(C)C)C(=O)NCC(=O)N[C@@H](CCCNC(=N)N)C(=O)N[C@@H](CC(C)C)C(=O)N[C@@H](CO)C(=O)N[C@H](C(=O)N[C@@H](CCC(=O)O)C(=O)N[C@@H](CC(C)C)C(=O)N[C@@H](Cc1c[nH]cn1)C(=O)N[C@@H](CCC(=O)O)C(=O)N[C@@H](CC(C)C)C(=O)N[C@@H](CCC(=O)O)C(=O)N[C@H](C(=O)N[C@@H](Cc1ccc(O)cc1)C(=O)N1CCC[C@H]1C(=O)N[C@@H](CCCNC(=N)N)C(=O)N[C@H](C(=O)N[C@@H](CCC(=O)O)C(=O)N[C@H](C(=O)NCC(=O)N[C@@H](CO)C(=O)NCC(=O)N[C@H](C(=O)N[C@@H](Cc1ccc(O)cc1)C(N)=O)[C@@H](C)O)[C@@H](C)O)[C@@H](C)O)[C@@H](C)O)[C@@H](C)O)[C@@H](C)O
Consider B3, for which the IC50 came to 0.547 nM.

For the molecule LSGLSTAVLGRLSQELHELQTYPRTETGSQTY-NH2 (backbone without side chain) [[des1, 2L, 4G, 9V, 15Q, 21Q, 23Y, 30S, 31Q, 32T, 33Y]mimylin], the IC50 was determined as 0.959 nM.

B4: [des1, 4G, 15Q, 21Q, 23Y, 30S, 31K(C20 diacid-gGlu), 32T, 33Y]mimylin (peptide)
peptide: ASGLSTAALGRLSQELHELQTYPRTETGSK([γGlu-C20 diacid])TY-NH2
modifications: N-terminus assumed
SMILES: CC(C)C[C@H](NC(=O)CNC(=O)[C@H](CO)NC(=O)[C@H](C)N)C(=O)N[C@@H](CO)C(=O)N[C@H](C(=O)N[C@@H](C)C(=O)N[C@@H](C)C(=O)N[C@@H](CC(C)C)C(=O)NCC(=O)N[C@@H](CCCNC(=N)N)C(=O)N[C@@H](CC(C)C)C(=O)N[C@@H](CO)C(=O)N[C@@H](CCC(N)=O)C(=O)N[C@@H](CCC(=O)O)C(=O)N[C@@H](CC(C)C)C(=O)N[C@@H](Cc1c[nH]cn1)C(=O)N[C@@H](CCC(=O)O)C(=O)N[C@@H](CC(C)C)C(=O)N[C@@H](CCC(N)=O)C(=O)N[C@H](C(=O)N[C@@H](Cc1ccc(O)cc1)C(=O)N1CCC[C@H]1C(=O)N[C@@H](CCCNC(=N)N)C(=O)N[C@H](C(=O)N[C@@H](CCC(=O)O)C(=O)N[C@H](C(=O)NCC(=O)N[C@@H](CO)C(=O)N[C@@H](CCCCNC(=O)CC[C@H](NC(=O)CCCCCCCCCCCCCCCCCCC(=O)O)C(=O)O)C(=O)N[C@H](C(=O)N[C@@H](Cc1ccc(O)cc1)C(N)=O)[C@@H](C)O)[C@@H](C)O)[C@@H](C)O)[C@@H](C)O)[C@@H](C)O
Consider B4, for which the IC50 turned out to be 1.27 nM.

B5: [N-terminal(C20 diacid-gGlu), des1, 9V, 15Q, 21Q, 23Y, 30S, 31G, 32T, 33Y]mimylin (peptide)
peptide: {C20 diacid-γGlu}-ASELSTAVLGRLSQELHELQTYPRTETGSGTY-NH2
SMILES: CC(C)C[C@H](NC(=O)[C@H](CCCNC(=N)N)NC(=O)CNC(=O)[C@H](CC(C)C)NC(=O)[C@@H](NC(=O)[C@H](C)NC(=O)[C@@H](NC(=O)[C@H](CO)NC(=O)[C@H](CC(C)C)NC(=O)[C@H](CCC(=O)O)NC(=O)[C@H](CO)NC(=O)[C@H](C)NC(=O)CC[C@H](NC(=O)CCCCCCCCCCCCCCCCCCC(=O)O)C(=O)O)[C@@H](C)O)C(C)C)C(=O)N[C@@H](CO)C(=O)N[C@@H](CCC(N)=O)C(=O)N[C@@H](CCC(=O)O)C(=O)N[C@@H](CC(C)C)C(=O)N[C@@H](Cc1c[nH]cn1)C(=O)N[C@@H](CCC(=O)O)C(=O)N[C@@H](CC(C)C)C(=O)N[C@@H](CCC(N)=O)C(=O)N[C@H](C(=O)N[C@@H](Cc1ccc(O)cc1)C(=O)N1CCC[C@H]1C(=O)N[C@@H](CCCNC(=N)N)C(=O)N[C@H](C(=O)N[C@@H](CCC(=O)O)C(=O)N[C@H](C(=O)NCC(=O)N[C@@H](CO)C(=O)NCC(=O)N[C@H](C(=O)N[C@@H](Cc1ccc(O)cc1)C(N)=O)[C@@H](C)O)[C@@H](C)O)[C@@H](C)O)[C@@H](C)O
B5: the IC50 was found to be 0.326 nM.
